Measured values from the supplement of paper PMC7125110.
± gives the standard error. Variants at the floor of the assay were thinned out.

B1: glmS ribozyme (parent)
chain: AUAAAAGCGCCAGAACUACAGAAAUGUAGUUGACGAGGAGGAGGUUUAUCGAAUUUUCGGCGGAUGCCUCCAAA

Tests used:
Settings in all cases: with glucosamine-6-phosphate
[1] = variants of: B1; test: self-cleavage kobs at 40 uM GlcN6P; higher = faster cleavage; RNA array
Summary of the method: (§1)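 Glucosamine-6-phosphate in HEPES/KCl/Mg(OAc)2 buffer, at 40 μM to 10 mM, was flowed over barcoded ribozyme variants transcribed in situ by E. coli RNA polymerase on sequenced MiSeq chips. Tracking was through a hybridised Cy3 probe at 37 °C. kobs, kcat and KM came from exponential decay fits and weighted Michaelis–Menten fits of normalised per-tile medians.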

[2] = variants of: B1; test: self-cleavage kobs at 160 uM GlcN6P; higher = faster cleavage; RNA array
Summary of the method: as §1

[3] = variants of: B1; test: self-cleavage kobs at 2500 uM GlcN6P; higher = faster cleavage; RNA array
Summary of the method: as §1

[4] = variants of: B1; test: self-cleavage kobs at 10000 uM GlcN6P; higher = faster cleavage; RNA array
Summary of the method: as §1

[5] = variants of: B1; test: self-cleavage kobs at 640 uM GlcN6P; higher = faster cleavage; RNA array
Summary of the method: as §1

Row | Variant | self-cleavage kobs at 40 uM GlcN6P [1] [s⁻¹] | self-cleavage kobs at 160 uM GlcN6P [2] [s⁻¹] | self-cleavage kobs at 2500 uM GlcN6P [3] [s⁻¹] | self-cleavage kobs at 10000 uM GlcN6P [4] [s⁻¹] | self-cleavage kobs at 640 uM GlcN6P [5] [s⁻¹]
1 | A6G G29C U45G C70G | < 1e-05 |  |  |  | 
2 | A6U G13C G63U A64G | < 1e-05 |  |  |  | 
3 | A14C G35U | < 1e-05 | < 1e-05 | < 1e-05 | < 1e-05 | 
4 | A39U U54G U55G | 0.000181 ± 6.2e-05 |  | 0.0171 ± 0.0034 |  | 0.00525 ± 0.0012
5 | A53U U54G C71A | 9.49e-05 ± 2.8e-05 |  |  | 0.00478 ± 0.0013 | 
6 | U45G G62A C70G C71G | < 1e-05 |  |  |  | 
7 | A33G U45A C50G U54G G60A C67A | 0.000354 ± 9.5e-05 |  |  | 0.000164 ± 5.5e-05 | 
8 | U30G U56G C58U U69C | < 1e-05 |  |  |  | 
9 | C16G A48C | < 1e-05 | < 1e-05 |  | 4.28e-05 ± 1.7e-05 | < 1e-05
10 | G51U G62U | < 1e-05 | < 1e-05 |  | < 1e-05 | 
11 | A6C G44C | < 1e-05 | < 1e-05 |  | < 1e-05 | < 1e-05
12 | A12U U57C C61A | < 1e-05 |  |  | < 1e-05 | < 1e-05
13 | G40U U55G | 0.000102 ± 1.4e-05 | 0.000149 ± 2.2e-05 | 0.00142 ± 0.00023 | 0.00228 ± 0.00046 | 0.000543 ± 9.9e-05
14 | G41A C58G | < 1e-05 | < 1e-05 | < 1e-05 | < 1e-05 | < 1e-05
15 | G13A C50G C68G | 7.03e-05 ± 1.5e-05 |  | 0.000125 ± 2.6e-05 | 9.04e-05 ± 1.9e-05 | 
16 | G29C A33G G38A G40C G43C | < 1e-05 |  |  |  | 
17 | A33U U56A C71A | < 1e-05 |  |  |  | 
18 | U31A G43U | < 1e-05 | < 1e-05 |  |  | 
19 | C50G C58A C68G C71U | 9.15e-05 ± 1.8e-05 |  |  | 0.00024 ± 5.2e-05 | 
20 | A1C U56G | 0.000433 ± 9.4e-05 |  |  | 0.0185 ± 0.0058 | 
21 | A15C C61A | < 1e-05 |  |  | < 1e-05 | 
22 | G13U C50G C61G | 8.16e-05 ± 1.3e-05 |  |  | 0.000116 ± 1.9e-05 | 
23 | A39U U55G | 0.000507 ± 7.9e-05 | 0.00122 ± 0.0003 | 0.00715 ± 0.0012 | 0.0282 ± 0.0058 | 0.00371 ± 0.00061
24 | A42C G59C C67G | < 1e-05 |  | < 1e-05 | < 1e-05 | 
25 | U30C A64C | < 1e-05 |  |  | < 1e-05 | < 1e-05
